B1: HDV Ribozyme (parent)
chain: GGCCGGCAUGGUCCCAGCCUCCUCGCUGGCGCCGGCUGGGCAACAUUCCGAGGGGACCGUCCCCUCGGUAAUGGCGAAUGGGACCCA

Variants of: B1
Experiment: self-cleavage, relative activity (ratio to wild type); higher = more cleavage; co-transcriptional

**Q.** With GGCCGGCAGGGUCCCAGCCUCCUCGCUGGCGCCGGCUGGGCAACAUUCCGAGGGGACCGUCCCCUCGGUAAUGGCGAAUGGGAGCCA [U9G C84G] as the variant, how does the self-cleavage read?
**A.** 0.222

**Q.** Which self-cleavage does the source give for GGCCGGCAGGGUCCCAGCCUCCUCGCUGGCGCCGGCUGGGCAACAUUCCGAGGGGACGGUCCCCUCGGUAAUGGCGAAUGGGACCCA [U9G C58G] here?
**A.** 1.02

**Q.** Which self-cleavage does the source give for GGCCGGCAGGGUCCCAGCCUCCUCGCUGGUGCCGGCUGGGCAACAUUCCGAGGGGACCGUCCCCUCGGUAAUGGCGAAUGGGACCCA [U9G C30U] here?
**A.** 0.853

**Q.** With GGCCGGCAGGGUCCCAGCCUCCUCGCUGGGGCCGGCUGGGCAACAUUCCGAGGGGACCGUCCCCUCGGUAAUGGCGAAUGGGACCCA [U9G C30G] as the variant, how does the self-cleavage read?
**A.** 0.145

**Q.** With GGCCGGCAGGGUCCCAGCCUCCUCGCUGGCGCCGGCUGGGCCACAUUCCGAGGGGACCGUCCCCUCGGUAAUGGCGAAUGGGACCCA [U9G A42C] as the variant, how does the self-cleavage read?
**A.** 0.453

**Q.** With GGCCGGCAGGGUCCCAGCCUCCUCGCUGGCGCCGGCUGGGCAACAUUCCGAGGGGACCGUCCCGUCGGUAAUGGCGAAUGGGACCCA [U9G C64G] as the variant, how does the self-cleavage read?
**A.** 0.831

**Q.** For GGCCGGCAGGGUCCCAGCCUCCUCGCUGGCGCGGGCUGGGCAACAUUCCGAGGGGACCGUCCCCUCGGUAAUGGCGAAUGGGACCCA [U9G C33G], which self-cleavage is on record?
**A.** 0.104

**Q.** Which self-cleavage does the source give for GGCCGGCAGGGUCCCAGCCUCCUCGCUGGCGCAGGCUGGGCAACAUUCCGAGGGGACCGUCCCCUCGGUAAUGGCGAAUGGGACCCA [U9G C33A] here?
**A.** 0.293

**Q.** With GGCCGGCAGGGUCCCAGCCUCCUCGCUGGCGCCGGCUGGGCAAUAUUCCGAGGGGACCGUCCCCUCGGUAAUGGCGAAUGGGACCCA [U9G C44U] as the variant, how does the self-cleavage read?
**A.** 0.443

**Q.** With GGCCGGCAGGGUCCCAGCCUCCUCGCUGGCGCCGGCUGGGCAACAUUCCGAGGGGACCGUCGCCUCGGUAAUGGCGAAUGGGACCCA [U9G C62G] as the variant, how does the self-cleavage read?
**A.** 0.462

**Q.** Which self-cleavage does the source give for GGCCGGCAGGGUCCCAGCCUCGUCGCUGGCGCCGGCUGGGCAACAUUCCGAGGGGACCGUCCCCUCGGUAAUGGCGAAUGGGACCCA [U9G C22G] here?
**A.** 0.208

**Q.** For GGCCGGCAGCGUCCCAGCCUCCUCGCUGGCGCCGGCUGGGCAACAUUCCGAGGGGACCGUCCCCUCGGUAAUGGCGAAUGGGACCCA [U9G G10C], which self-cleavage is on record?
**A.** 0.489

**Q.** With GGCCGGCAGUGUCCCAGCCUCCUCGCUGGCGCCGGCUGGGCAACAUUCCGAGGGGACCGUCCCCUCGGUAAUGGCGAAUGGGACCCA [U9G G10U] as the variant, how does the self-cleavage read?
**A.** 0.987

**Q.** For GGCCGGCAGGGUCCCAGCCUCCUCGCUGGCGCCGGCUGGGCAACAUUCCGAGGGGACCGUCCCCUCGGUAAUGGCGAAUGGGACCAA [U9G C86A], which self-cleavage is on record?
**A.** 0.959

**Q.** Which self-cleavage does the source give for GGCCGGCAGGGUCCCAGCCUCCUCGCUGGCGACGGCUGGGCAACAUUCCGAGGGGACCGUCCCCUCGGUAAUGGCGAAUGGGACCCA [U9G C32A] here?
**A.** 0.277

**Q.** For GGCCGGCAGGGUCCCAGCCUCCUCGCUGGCGUCGGCUGGGCAACAUUCCGAGGGGACCGUCCCCUCGGUAAUGGCGAAUGGGACCCA [U9G C32U], which self-cleavage is on record?
**A.** 0.623

**Q.** Which self-cleavage does the source give for GGCCGGCAGGGUCCCAGCCUCCUCGCUGGCGCCGGCUGGGCAACAUUCCGUGGGGACCGUCCCCUCGGUAAUGGCGAAUGGGACCCA [U9G A51U] here?
**A.** 1.22

**Q.** For GGCCGGCAGGGUCCCAGCCUCCUCGCUGGCGCCGGCUGGGCAACAUUCCGGGGGGACCGUCCCCUCGGUAAUGGCGAAUGGGACCCA [U9G A51G], which self-cleavage is on record?
**A.** 0.95

**Q.** With GGCCGGCAGGGUCCCAGCCUCCUCGCUGGCGCCGGCUGGGCAACAUUCCGCGGGGACCGUCCCCUCGGUAAUGGCGAAUGGGACCCA [U9G A51C] as the variant, how does the self-cleavage read?
**A.** 1.03

**Q.** Which self-cleavage does the source give for GGCCGGCAGGGUCCCAGCCUCCUCGCUGGCGCCCGCUGGGCAACAUUCCGAGGGGACCGUCCCCUCGGUAAUGGCGAAUGGGACCCA [U9G G34C] here?
**A.** 0.175

**Q.** For GGCCGGCAGGGUCCCAGGCUCCUCGCUGGCGCCGGCUGGGCAACAUUCCGAGGGGACCGUCCCCUCGGUAAUGGCGAAUGGGACCCA [U9G C18G], which self-cleavage is on record?
**A.** 0

**Q.** For GGCCGGCAGGGUCCCAGUCUCCUCGCUGGCGCCGGCUGGGCAACAUUCCGAGGGGACCGUCCCCUCGGUAAUGGCGAAUGGGACCCA [U9G C18U], which self-cleavage is on record?
**A.** 0.504

**Q.** With GGCCGGCAGGGUCCCAGACUCCUCGCUGGCGCCGGCUGGGCAACAUUCCGAGGGGACCGUCCCCUCGGUAAUGGCGAAUGGGACCCA [U9G C18A] as the variant, how does the self-cleavage read?
**A.** 0.0923

**Q.** With GGCCGGCAGGGUCCCCGCCUCCUCGCUGGCGCCGGCUGGGCAACAUUCCGAGGGGACCGUCCCCUCGGUAAUGGCGAAUGGGACCCA [U9G A16C] as the variant, how does the self-cleavage read?
**A.** 0.712

**Q.** For GGCCGGCAGGGUCCCGGCCUCCUCGCUGGCGCCGGCUGGGCAACAUUCCGAGGGGACCGUCCCCUCGGUAAUGGCGAAUGGGACCCA [U9G A16G], which self-cleavage is on record?
**A.** 1.42

**Q.** Which self-cleavage does the source give for GGCCGGCAGGGUCCCAGCCUCCUCGCUGGCGCCGGCUGGGCAACAUUCCGAGGGGACCGUCCCCUCGGUAAUGGCGAGUGGGACCCA [U9G A78G] here?
**A.** 0.166

**Q.** With GGCCGGCAGGGUCCCAGCCUCCUCGCUGGCGCCGGCUGGGCAACAUUCCGAGGGGACCGUCCCCUCGGUAAUGGCGACUGGGACCCA [U9G A78C] as the variant, how does the self-cleavage read?
**A.** 0.208

**Q.** Which self-cleavage does the source give for GGCCGGCAGGGUCCCAGCCUCCUCGCUGGCGCCGGCUGGGCAACAUUCCGAGGGGACCGUGCCCUCGGUAAUGGCGAAUGGGACCCA [U9G C61G] here?
**A.** 1.02

**Q.** With GGCCGGCAGGGUCCCAGCCUCCUCGCUGGCGCCGGCUGGGCAACAUUUCGAGGGGACCGUCCCCUCGGUAAUGGCGAAUGGGACCCA [U9G C48U] as the variant, how does the self-cleavage read?
**A.** 1.05

**Q.** Which self-cleavage does the source give for GGCCGGCAGGGUCCCAGCCUCCUCGCUGGCGCCGGCUGGGCAACAUUCCGAGGGGAACGUCCCCUCGGUAAUGGCGAAUGGGACCCA [U9G C57A] here?
**A.** 0.831

**Q.** Which self-cleavage does the source give for GGCCGGCAGGGUCCCAGCCUCCUCGCUGGCGCCGGCUGGGCAACAUUCCGAGGGGAGCGUCCCCUCGGUAAUGGCGAAUGGGACCCA [U9G C57G] here?
**A.** 1.19

**Q.** With GGCCGGCAGGGUCCCAGCCUCCUCGGUGGCGCCGGCUGGGCAACAUUCCGAGGGGACCGUCCCCUCGGUAAUGGCGAAUGGGACCCA [U9G C26G] as the variant, how does the self-cleavage read?
**A.** 0.88

Reference: the RNAGym collection of RNA variant scans (doi:10.7554/elife.80360)
